Broadly, the Kd is a measure of binding affinity in units of concentration.

The target in one experiment is p62 LIR (Homo sapiens) (UniProt Q13501). To be noted: cited from earlier work.
The target of experiment [1] is GST fusion of human OPTN (aa 2-311), Q96CV9-1. Description: phage ELISA. The conditions noted are these: Background correction to BSA signal was applied; read off a plot. (In general: An ELISA detects its analyte on a solid surface through an enzyme-linked reagent.)

GATE-16, sequence (P60520 1-116): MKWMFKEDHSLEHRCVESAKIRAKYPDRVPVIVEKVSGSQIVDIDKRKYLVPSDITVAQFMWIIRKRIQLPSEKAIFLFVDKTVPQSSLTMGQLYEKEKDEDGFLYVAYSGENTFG

Take GATE-16 (from UniProt P60520): the Kd in the experiment with p62 LIR (Homo sapiens) was 5.2 µM.

“LC3Bwt displayed on phage (from UniProt Q9GZQ8) F11L; R14L; R15N; Q19L; E22D; D23N; [26-28]I (column not resolved, see notes); K53I; K55G” returned a response in experiment [1] of 0.91 OD 450 nm.

These data come from publication PMC7137635.
